± gives the uncertainty stated by the source.
Test: protein stability index of a GFP-peptide fusion (yeast GPS) (PSI 1-4); higher = more stable; sorted into four equal gates, so the index is relative within each strain
Conditions: doa10∆
In short: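 The protein stability index of a peptide was calculated by multiplying its read frequency in each gate by that gate's number and adding the products. The peptides were tiled 17-residue stretches of yeast proteins, fused downstream of GFP on a Cherry-expressing plasmid and carried in yeast as a pooled library. Mid-log cultures in leucine-free medium were sorted into four equal gates by GFP/Cherry ratio, and each gate's plasmids were PCR-amplified and Illumina-sequenced.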
With FSVRTKDSNKDVVVEGL [RPL10] the protein stability index was 2.14 ± 0.051.
Sequence FSYQEVEFKLPKELVPS [CDC53] has a protein stability index of 2.13 ± 0.056.
In the case of FTGEKPIITGSTSTSSS [MED8], the protein stability index is reported as 2.71 ± 0.062.
With FTVDKKIAERSLLLKNY [SKP1] the protein stability index was 3.44 ± 0.15.
For FVFQTVFDTAITSWYEN [QCR9], the protein stability index was 1.66 ± 0.054.
FVIGEQGKPYISLPKGK [RPS4A] showed a protein stability index of 3.34 ± 0.068.
For FVKNIRMLSFEDISKAT [RPN9], the protein stability index was 2.66 ± 0.063.
For FVLLEIEPVTKVSSLKM [YCS4], the protein stability index was 2.34 ± 0.049.
FWSFLDSLIFKDSSLNY [YJL039C/NUP192] gave a protein stability index of 3.22 ± 0.076.
In the case of FYDYIKERSIVVGRTTR [REC8], the protein stability index is reported as 1.9 ± 0.077.
Sequence FYGVLDQGNGWLYVYET [RPN6] has a protein stability index of 2.9 ± 0.095.
Work on FYQQVHKKDRLQYLPLY [SIR4] yielded a protein stability index of 1.64 ± 0.063.
For GAETDELSMIMEHFSQQ [RPS12], the protein stability index was 2.88 ± 0.088.
Work on GAFTIALAYAGTGNNSA [RPN2] yielded a protein stability index of 2.09 ± 0.068.
GAGGLNPFTSATSSTNA [YOR098C/NUP1] showed a protein stability index of 2.04 ± 0.12.
With GAGIERELARIKKYASV [RPL3] the protein stability index was 3.49 ± 0.21.
With GAQFSRSYDLTRHQNTI [RPN4] the protein stability index was 1.16 ± 0.12.
Sequence GATKIVREHYLRSDIPC [DIS3] has a protein stability index of 2.67 ± 0.069.
Sequence GCENPADVFRRCLVAVI [SRP72] has a protein stability index of 1.93 ± 0.055.
GCLIKNLPRTKAKSVVN [RMP1] showed a protein stability index of 2 ± 0.11.
For GCLNFVDENDEVLLAGF [RPS23A], the protein stability index was 1.3 ± 0.083.
Sequence GDANNRWDKEEYQSLMS [SMC1] has a protein stability index of 3.36 ± 0.21.
In the case of GDDEATEIISTLSNGLI [BRR2], the protein stability index is reported as 3.32 ± 0.099.
With GDFGGWFCPCHGSHYDI [RIP1] the protein stability index was 2.87 ± 0.15.
GDKEATAPLIQRKNKKN [RPN8] gave a protein stability index of 3.22 ± 0.15.
In the case of GDPALVYKFMSLAKSSA [ECM29], the protein stability index is reported as 3.22 ± 0.11.
In the case of GDYGEEEDADQEESFSL [SRB8], the protein stability index is reported as 3.76 ± 0.28.
Sequence GDYGSAKCNSLLQLKYF [POP5] has a protein stability index of 2.31 ± 0.049.
In the case of GEAEAEKEEEEAKEESD [RPP1A], the protein stability index is reported as 2.13 ± 0.22.
In the case of GEICKNYELEKIADNIS [YDL116W/NUP84], the protein stability index is reported as 3.13 ± 0.098.
Work on GELGEIRALQPKLKEGA [YIL149C/MLP2] yielded a protein stability index of 3.15 ± 0.11.
GEMVGVLAAQSIGEPAT [RPO21] gave a protein stability index of 2.36 ± 0.087.
Work on GENAAEKPDNSNHNNLN [SNF2] yielded a protein stability index of 3.01 ± 0.068.
GENDDDTLDGDLMDDMS [RPN3] gave a protein stability index of 2.73 ± 0.17.
For GENNINFQKASATLDGC [BRN1], the protein stability index was 2.94 ± 0.23.
GEVVYLRKQKDSSTTSS [ITC1] showed a protein stability index of 1.79 ± 0.073.
GGADQVTRTQQWSMVAQ [SWI1] showed a protein stability index of 3.15 ± 0.077.
GGKSVGFGLVYNSVAEA [RPS24A] showed a protein stability index of 3.11 ± 0.052.
Work on GGLKNGVLYQGNIQISE [DIS3] yielded a protein stability index of 3.25 ± 0.098.
GGQIAHILFQNNPDMMI [ROX3] showed a protein stability index of 2.54 ± 0.041.
For GGSATARHKKKVENLDY [YML031W/NDC1], the protein stability index was 3.4 ± 0.14.
Work on GGTNEDDFTDAIQFVKE [YCS4] yielded a protein stability index of 2.35 ± 0.14.
With GHEELKRRIEEEQEKIN [ISW2] the protein stability index was 3.36 ± 0.082.
Sequence GHIPWHILAVKKMMNTL [SSN2] has a protein stability index of 2.45 ± 0.065.
With GIEHFDIPPPAIMKPYY [RPO31] the protein stability index was 2.69 ± 0.15.
Sequence GIFLHGKIPTLKISLIQ [PRP8] has a protein stability index of 2.26 ± 0.042.
For GIRAPKGALMYGPPGTG [RPT5], the protein stability index was 2.86 ± 0.14.
For GISDDENDEEDIYMHDV [RRP4], the protein stability index was 3.33 ± 0.13.
Work on GISDMCRLFFTELASKD [YCS4] yielded a protein stability index of 2.37 ± 0.085.
GISRDIKALQDSLFKDV [YML103C/NUP188] gave a protein stability index of 2.19 ± 0.077.
GKHNLTIWCVCDSYLDA [BRR2] gave a protein stability index of 2.04 ± 0.059.
Work on GKICLILTRLNGILPDD [SSN2] yielded a protein stability index of 3.12 ± 0.21.
GKILLKGDNITLITSAD [SME1] gave a protein stability index of 2.62 ± 0.092.
Sequence GKIVGFDEFMNVVIDEA [SME1] has a protein stability index of 3.26 ± 0.063.
GKIVSQRGKWNLKYLDN [RGR1] gave a protein stability index of 2.28 ± 0.074.
GKKSSSSTKDYLTPPHE [RET1] gave a protein stability index of 3.72 ± 0.27.
With GKLWKDVKARIAAGDGD [QCR9] the protein stability index was 2.3 ± 0.11.
For GKMNNEVSTSTSMTGDA [SWI3], the protein stability index was 3.49 ± 0.076.
GKQAIGAIAYNQFKRID [RET1] showed a protein stability index of 2.27 ± 0.2.
In the case of GKSEKLSLLLVEDKIPL [SKI6], the protein stability index is reported as 2.45 ± 0.11.
With GLALQLFKKLKEENDEG [RPN2] the protein stability index was 3.27 ± 0.12.
For GLAPDARVLSNYLRQQC [PRE5], the protein stability index was 2.72 ± 0.19.
In the case of GLARKFHNMLQTLYTGD [SSN3], the protein stability index is reported as 2.91 ± 0.24.
For GLEVGPVVQVGIFIKIL [IRR1], the protein stability index was 2.38 ± 0.068.
Work on GLGVNRRILAAAAAAAA [SSN3] yielded a protein stability index of 1.44 ± 0.07.
With GLRAVRKNRYVILQSDL [RPT3] the protein stability index was 3.05 ± 0.081.
GLSIHPTQITQYTQRLS [SRP68] showed a protein stability index of 2.09 ± 0.063.
In the case of GMIYNKLFVSKEHAPYT [FAS2], the protein stability index is reported as 3.12 ± 0.091.
GNDFKFNYQGDELVLNF [REC8] showed a protein stability index of 3.34 ± 0.078.
GNLSKREIQIDAVLKIF [SRB8] gave a protein stability index of 2.75 ± 0.065.
Work on GNPYIELNQDRLGGDDL [SNF5] yielded a protein stability index of 3.05 ± 0.092.
Sequence GNSERPSAVAGFINQKN [YIL149C/MLP2] has a protein stability index of 3.31 ± 0.1.
In the case of GNSKDDLLDMIQFGAKN [ISW2], the protein stability index is reported as 3.14 ± 0.2.
GNTVVDGEGKVDSISLH [YCG1] gave a protein stability index of 3.54 ± 0.3.
With GNVLINDTLPDEISPEL [SNU114] the protein stability index was 2.99 ± 0.089.
GPAAAKPMAFSNTTTHV [MTR3] gave a protein stability index of 3.06 ± 0.08.
Sequence GPHKGKAPRILSTGRKF [RPL18A] has a protein stability index of 2.81 ± 0.26.
For GPSATDPETTATQKESL [RGR1], the protein stability index was 2.43 ± 0.062.
GQAIVVHPDYLYGAITE [FAS2] gave a protein stability index of 2.09 ± 0.034.
GQLLKDHLIIEPEEEKS [ARP9] showed a protein stability index of 2.15 ± 0.084.
In the case of GQLPQLPKLNLPKYQTI [SNF5], the protein stability index is reported as 2.78 ± 0.062.
With GQSSVKHEDFVEGISEV [RPT5] the protein stability index was 3.7 ± 0.24.
Work on GRDAFHLRVRVHPFHVL [RPL10] yielded a protein stability index of 1.7 ± 0.061.
Sequence GRDKHALSLLYHLLNYD [SSN3] has a protein stability index of 2.91 ± 0.074.
GREGIWSKTIKARTNLH [RPC34] showed a protein stability index of 1.46 ± 0.12.
GRICRPLIIVSDGQSRV [RET1] gave a protein stability index of 2.06 ± 0.045.
In the case of GRIPLHWSVSFQAHEIT [NAS6], the protein stability index is reported as 2.87 ± 0.057.
GRKVLQKVQGESHIDSR [SIR4] showed a protein stability index of 3.27 ± 0.14.
With GRNIGHPIIQDKEGNGV [RPB3] the protein stability index was 3.52 ± 0.17.
With GRNRGRPNRRGPRNTEE [RPS2] the protein stability index was 3.38 ± 0.069.
Work on GRRISENGQRDLDRIAA [RPS19A] yielded a protein stability index of 3.76 ± 0.25.
For GSAELRNSYPASFYSVN [RPN3], the protein stability index was 3.12 ± 0.21.
Sequence GSEIAISSLGYRSHIFA [SWI3] has a protein stability index of 2.63 ± 0.057.
For GSIEEPELNVSLNLTDD [MCD1], the protein stability index was 3.38 ± 0.058.
GSIPVDQVVVRGIDTLQ [RPB3] showed a protein stability index of 2.14 ± 0.06.
With GSIQKGMPHKFYQGKTG [RPL21A] the protein stability index was 3.07 ± 0.14.
In the case of GSIRVHKSGKLSVKIGN [RPC53], the protein stability index is reported as 1.27 ± 0.052.
Sequence GSKLEDMSKILVDQGFN [RET1] has a protein stability index of 3.14 ± 0.066.
GSKQADRMAKYLHIRDK [PGD1] gave a protein stability index of 3.08 ± 0.12.
In the case of GSLNATNFSPTPANNGE [SNF2], the protein stability index is reported as 2.93 ± 0.055.
With GSLTFLDNKGSGEDAEE [YIL149C/MLP2] the protein stability index was 3.48 ± 0.27.
